US8936925B2, “Reconstitution of 5-enolpyruvylshikimate-3-phosphate synthase activity by fragment complementation” (priority 2004, dated 2015)

B1: C225: E. coli EPSPS C-terminal fragment, residue 225 to C-terminus (protein, UniProt P0A6D3 225-427, looked up, fragment)
chain: VKGGQSYQSPGTYLVEGDASSASYFLAAAAIKGGTVKVTGIGRNSMQGDIRFADVLEKMGATICWGDDYISCTRGELNAIDMDMNHIPDAAMTIATAALFAKGTTTLRNIYNWRVKETDRLFAMATELRKVGAEVEEGHDYIRITPPEKLNFAEIATYNDHRMAMCFSLVALSDTPVTILDPKCTAKTFPDYFEQLARISQAA
B2: C228: E. coli EPSPS C-terminal fragment, residue 228 to C-terminus (protein, UniProt P0A6D3 228-427, looked up, fragment)
chain: GQSYQSPGTYLVEGDASSASYFLAAAAIKGGTVKVTGIGRNSMQGDIRFADVLEKMGATICWGDDYISCTRGELNAIDMDMNHIPDAAMTIATAALFAKGTTTLRNIYNWRVKETDRLFAMATELRKVGAEVEEGHDYIRITPPEKLNFAEIATYNDHRMAMCFSLVALSDTPVTILDPKCTAKTFPDYFEQLARISQAA
B3: C235: E. coli EPSPS C-terminal fragment, residue 235 to C-terminus (protein, UniProt P0A6D3 235-427, looked up, fragment)
chain: GTYLVEGDASSASYFLAAAAIKGGTVKVTGIGRNSMQGDIRFADVLEKMGATICWGDDYISCTRGELNAIDMDMNHIPDAAMTIATAALFAKGTTTLRNIYNWRVKETDRLFAMATELRKVGAEVEEGHDYIRITPPEKLNFAEIATYNDHRMAMCFSLVALSDTPVTILDPKCTAKTFPDYFEQLARISQAA
B4: C239: E. coli EPSPS C-terminal fragment, residue 239 to C-terminus (protein, UniProt P0A6D3 239-427, looked up, fragment)
chain: VEGDASSASYFLAAAAIKGGTVKVTGIGRNSMQGDIRFADVLEKMGATICWGDDYISCTRGELNAIDMDMNHIPDAAMTIATAALFAKGTTTLRNIYNWRVKETDRLFAMATELRKVGAEVEEGHDYIRITPPEKLNFAEIATYNDHRMAMCFSLVALSDTPVTILDPKCTAKTFPDYFEQLARISQAA
B5: C241: E. coli EPSPS C-terminal fragment, residue 241 to C-terminus (protein, UniProt P0A6D3 241-427, looked up, fragment)
chain: GDASSASYFLAAAAIKGGTVKVTGIGRNSMQGDIRFADVLEKMGATICWGDDYISCTRGELNAIDMDMNHIPDAAMTIATAALFAKGTTTLRNIYNWRVKETDRLFAMATELRKVGAEVEEGHDYIRITPPEKLNFAEIATYNDHRMAMCFSLVALSDTPVTILDPKCTAKTFPDYFEQLARISQAA
B6: C246: E. coli EPSPS C-terminal fragment, residue 246 to C-terminus (protein, UniProt P0A6D3 246-427, looked up, fragment)
chain: ASYFLAAAAIKGGTVKVTGIGRNSMQGDIRFADVLEKMGATICWGDDYISCTRGELNAIDMDMNHIPDAAMTIATAALFAKGTTTLRNIYNWRVKETDRLFAMATELRKVGAEVEEGHDYIRITPPEKLNFAEIATYNDHRMAMCFSLVALSDTPVTILDPKCTAKTFPDYFEQLARISQAA
B7: N224: E. coli EPSPS N-terminal fragment, N-terminus to residue 224 (protein, UniProt P0A6D3 1-224, looked up, fragment)
chain: MESLTLQPIARVDGTINLPGSKSVSNRALLLAALAHGKTVLTNLLDSDDVRHMLNALTALGVSYTLSADRTRCEIIGNGGPLHAEGALELFLGNAGTAMRPLAAALCLGSNDIVLTGEPRMKERPIGHLVDALRLGGAKITYLEQENYPPLRLQGGFTGGNVDVDGSVSSQFLTALLMTAPLAPEDTVIRIKGDLVSKPYIDITLNLMKTFGVEIENQHYQQFV
B8: N227: E. coli EPSPS N-terminal fragment, N-terminus to residue 227 (protein, UniProt P0A6D3 1-227, looked up, fragment)
chain: MESLTLQPIARVDGTINLPGSKSVSNRALLLAALAHGKTVLTNLLDSDDVRHMLNALTALGVSYTLSADRTRCEIIGNGGPLHAEGALELFLGNAGTAMRPLAAALCLGSNDIVLTGEPRMKERPIGHLVDALRLGGAKITYLEQENYPPLRLQGGFTGGNVDVDGSVSSQFLTALLMTAPLAPEDTVIRIKGDLVSKPYIDITLNLMKTFGVEIENQHYQQFVVKG
B9: N234: E. coli EPSPS N-terminal fragment, N-terminus to residue 234 (protein, UniProt P0A6D3 1-234, looked up, fragment)
chain: MESLTLQPIARVDGTINLPGSKSVSNRALLLAALAHGKTVLTNLLDSDDVRHMLNALTALGVSYTLSADRTRCEIIGNGGPLHAEGALELFLGNAGTAMRPLAAALCLGSNDIVLTGEPRMKERPIGHLVDALRLGGAKITYLEQENYPPLRLQGGFTGGNVDVDGSVSSQFLTALLMTAPLAPEDTVIRIKGDLVSKPYIDITLNLMKTFGVEIENQHYQQFVVKGGQSYQSP
B10: N238: E. coli EPSPS N-terminal fragment, N-terminus to residue 238 (protein, UniProt P0A6D3 1-238, looked up, fragment)
chain: MESLTLQPIARVDGTINLPGSKSVSNRALLLAALAHGKTVLTNLLDSDDVRHMLNALTALGVSYTLSADRTRCEIIGNGGPLHAEGALELFLGNAGTAMRPLAAALCLGSNDIVLTGEPRMKERPIGHLVDALRLGGAKITYLEQENYPPLRLQGGFTGGNVDVDGSVSSQFLTALLMTAPLAPEDTVIRIKGDLVSKPYIDITLNLMKTFGVEIENQHYQQFVVKGGQSYQSPGTYL
B11: N240: E. coli EPSPS N-terminal fragment, N-terminus to residue 240 (protein, UniProt P0A6D3 1-240, looked up, fragment)
chain: MESLTLQPIARVDGTINLPGSKSVSNRALLLAALAHGKTVLTNLLDSDDVRHMLNALTALGVSYTLSADRTRCEIIGNGGPLHAEGALELFLGNAGTAMRPLAAALCLGSNDIVLTGEPRMKERPIGHLVDALRLGGAKITYLEQENYPPLRLQGGFTGGNVDVDGSVSSQFLTALLMTAPLAPEDTVIRIKGDLVSKPYIDITLNLMKTFGVEIENQHYQQFVVKGGQSYQSPGTYLVE
B12: N245: E. coli EPSPS N-terminal fragment, N-terminus to residue 245 (protein, UniProt P0A6D3 1-245, looked up, fragment)
chain: MESLTLQPIARVDGTINLPGSKSVSNRALLLAALAHGKTVLTNLLDSDDVRHMLNALTALGVSYTLSADRTRCEIIGNGGPLHAEGALELFLGNAGTAMRPLAAALCLGSNDIVLTGEPRMKERPIGHLVDALRLGGAKITYLEQENYPPLRLQGGFTGGNVDVDGSVSSQFLTALLMTAPLAPEDTVIRIKGDLVSKPYIDITLNLMKTFGVEIENQHYQQFVVKGGQSYQSPGTYLVEGDASS
B13: N259: E. coli EPSPS N-terminal fragment, N-terminus to residue 259 (protein, UniProt P0A6D3 1-259, looked up, fragment)
chain: MESLTLQPIARVDGTINLPGSKSVSNRALLLAALAHGKTVLTNLLDSDDVRHMLNALTALGVSYTLSADRTRCEIIGNGGPLHAEGALELFLGNAGTAMRPLAAALCLGSNDIVLTGEPRMKERPIGHLVDALRLGGAKITYLEQENYPPLRLQGGFTGGNVDVDGSVSSQFLTALLMTAPLAPEDTVIRIKGDLVSKPYIDITLNLMKTFGVEIENQHYQQFVVKGGQSYQSPGTYLVEGDASSASYFLAAAAIKGGT

Tested on: aroA gene-mutant E. coli strain AB2829
Assay: In vivo complementation: growth on solid M63 restrictive medium
Assay type: cell-based
Set-up: key: −: failed to grow; +: able to grow
Conditions: C-terminal fragment alone
From the text: The pKU2100 plasmid constructed as described above and corresponding pACYC1184 plasmid were introduced separately or together into the strain AB2829 deficient in E. coli aroA gene. Then, the strain was streaked on solid M63 restrictive medium and cultured overnight to determine the growth.
In order to test if EPSPS achieves fragment complementation after in vivo expression, genes encoding EPSPS N-terminal peptides were constructed into pACYC184, and genes encoding EPSPS C-terminal peptides were constructed into pBR322 (see the section Materials and Methods for the detailed construction method). Afterwards, these plasmids were introduced into aroA gene-mutant E. coli strain AB2829. EPSPS activity of the protein fragments encoded by these genes was determined by the growth of the strains on M63 restrictive medium.
The pACYC184 and pBR322 plasmids are able to be expressed in the same bacterial cell since they have replicons p15A and ColE1 respectively. In this regard, a pACYC184 plasmid was co-introduced into aroA gene-mutant E. coli strain AB2829 together with a corresponding pKU2100 plasmid, wherein the N-terminal peptide encoded by the pACYC184 plasmid and C-terminal peptide encoded by the pKU2100 plasmid are the two fragments divided at the same site from EPSPS. The resulting strains are streaked on M63 restrictive medium, and cultured at 37° C.
The pBR322 plasmids constructed in section 3.5 a and their relevant pACYC1184 plasmids constructed in section 3.5 b were introduced respectively or together into E. coli strain AB2829 deficient in aroA gene. Then the strains were streaked on solid M63 restrictive medium and cultured overnight to test the growth.

| Molecule | complementation condition, C-terminal |
| --- | --- |
| B1 | − |
| B2 | − |
| B3 | − |
| B4 | − |
| B5 | − |
| B6 | − |

Same assay, conditions: N-terminal fragment alone

| Molecule | complementation condition, N-terminal |
| --- | --- |
| B7 | − |
| B8 | − |
| B9 | − |
| B10 | − |
| B11 | − |
| B12 | − |
| B13 | − |
